In PMC9900795 (bioRxiv, 2023):
Each block holds one molecule with its values, some of them ahead of it.

Tests used:
Assay in all cases: pull-down
[1] = molecular target: FL-Ndel1^PM, full-length Ndel1 with the five sites phosphorylated by CDK5 mutated to aspartic acid (UniProt Q9GZM8)
[2] = molecular target: Ndel1^ΔCTCC, Ndel1 with the C-terminal coiled-coil containing the purported heavy chain-binding site deleted (UniProt Q9GZM8)
[3] = molecular target: NT-Ndel1, truncation of Ndel1 containing only the N-terminal coiled-coil (UniProt Q9GZM8)
Lis1 = molecular target: T1, Lis1 (UniProt P43034 1-410)
T1 sequence: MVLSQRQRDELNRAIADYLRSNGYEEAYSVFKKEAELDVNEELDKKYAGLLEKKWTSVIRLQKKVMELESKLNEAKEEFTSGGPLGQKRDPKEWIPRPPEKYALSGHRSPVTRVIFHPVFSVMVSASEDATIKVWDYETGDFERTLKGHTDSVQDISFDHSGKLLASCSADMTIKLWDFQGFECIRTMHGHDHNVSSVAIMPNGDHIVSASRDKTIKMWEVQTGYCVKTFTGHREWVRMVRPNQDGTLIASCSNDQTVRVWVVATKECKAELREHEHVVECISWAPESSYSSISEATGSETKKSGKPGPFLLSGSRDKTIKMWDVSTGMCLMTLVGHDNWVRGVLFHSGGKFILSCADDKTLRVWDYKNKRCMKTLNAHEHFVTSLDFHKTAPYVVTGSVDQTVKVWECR

[4] = molecular target: FL-Ndel1^PM, full-length Ndel1 with the five sites phosphorylated by CDK5 mutated to aspartic acid (UniProt Q9GZM8); remark: listed apart in the source

fold higher affinity than FL-Ndel1 [1]: 2 fold | Kd [2]: 55 nM | Kd [3]: 79 nM
Molecule: SNAP-tagged, recombinant full-length human dynein with all associated accessory chains (from UniProt Q14204;O43237;P63172;Q9NP97;P63167) (complex)

Kd (Lis1): ~4 nM
B1: full-length Ndel1 (FL-Ndel1), HaloTag at the N-terminus and 6X-His tag at the C-terminus (natural protein)
chain: MDGEDIPDFSSLKEETAYWKELSLKYKQSFQEARDELVEFQEGSRELEAELEAQLVQAEQRNRDLQADNQRLKYEVEALKEKLEHQYAQSYKQVSVLEDDLSQTRAIKEQLHKYVRELEQANDDLERAKRATIVSLEDFEQRLNQAIERNAFLESELDEKESLLVSVQRLKDEARDLRQELAVRERQQEVTRKSAPSSPTLDCEKMDSAVQASLSLPATPVGKGTENTFPSPKAIPNGFGTSPLTPSARISALNIVGDLLRKVGALESKLAACRNFAKDQASRKSYISGNVNCGVLNGNGTKFSRSGHTSFFDKGAVNGFDPAPPPPGLGSSRPSSAPGMLPLSV

Kd (Lis1): ~1.2 nM
B2: NT-Ndel1, truncation of Ndel1 containing only the N-terminal coiled-coil (domain or fragment)
chain: MDGEDIPDFSSLKEETAYWKELSLKYKQSFQEARDELVEFQEGSRELEAELEAQLVQAEQRNRDLQADNQRLKYEVEALKEKLEHQYAQSYKQVSVLEDDLSQTRAIKEQLHKYVRELEQANDDLERAKRATIVSLEDFEQRLNQAIERNAFLESELDEKESLLVSVQRLKDEARDLRQELAVRERQQEVTR

Kd [4]: 4 nM
B3: Lis1 (natural protein)
chain: MVLSQRQRDELNRAIADYLRSNGYEEAYSVFKKEAELDVNEELDKKYAGLLEKKWTSVIRLQKKVMELESKLNEAKEEFTSGGPLGQKRDPKEWIPRPPEKYALSGHRSPVTRVIFHPVFSVMVSASEDATIKVWDYETGDFERTLKGHTDSVQDISFDHSGKLLASCSADMTIKLWDFQGFECIRTMHGHDHNVSSVAIMPNGDHIVSASRDKTIKMWEVQTGYCVKTFTGHREWVRMVRPNQDGTLIASCSNDQTVRVWVVATKECKAELREHEHVVECISWAPESSYSSISEATGSETKKSGKPGPFLLSGSRDKTIKMWDVSTGMCLMTLVGHDNWVRGVLFHSGGKFILSCADDKTLRVWDYKNKRCMKTLNAHEHFVTSLDFHKTAPYVVTGSVDQTVKVWECR
